Publication PMC7467691, “Meiotic chromosome synapsis depends on multivalent SYCE1-SIX6OS1 interactions that are disrupted in cases of human infertility” (Science Advances, 2020)

T1: SIX6OS1N (human SIX6OS1 amino acids 1 to 67) (human, UniProt Q8N1H7 1-67)
T1 construct: Protein SIX6OS1, human, amino acids 1 to 67; also called SIX6OS1 1–67; source: E. coli BL21(DE3), co-expressed with SYCE1 constructs, purified as complex (MBP removed by TEV); not shown: MBP, N-terminal, cleaved
T1 sequence (looked up): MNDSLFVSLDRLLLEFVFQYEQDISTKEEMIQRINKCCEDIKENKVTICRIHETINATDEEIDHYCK

B1: SYCE1core (human SYCE1 amino acids 25 to 179) (domain or fragment, UniProt Q8N0S2 25-179, looked up)
chain: GQDTSSQKIEDLMEMVQKLQKVGSLEPRVEVLINRINEVQQAKKKANKDLGEARTICEALQKELDSLHGEKVHLKEILSKKQETLRILRLHCQEKESEAHRKHTMLQECKERISALNLQIEEEKNKQRQLRLAFEEQLEDLMGQHKDLWDFHMPE
notes: Synaptonemal complex central element protein 1 (SYCE1), human, amino acids 25 to 179, numbers relative to the canonical 351-amino acid isoform; also called SYCE1 structural core; SYCE1 25–179; source: co-expressed with SIX6OS1N for the complex
B2: full-length SYCE1 (human) (natural protein, UniProt Q8N0S2 1-351, looked up)
chain: MAGRSLTSKAEPTAGAVDRAEKAGGQDTSSQKIEDLMEMVQKLQKVGSLEPRVEVLINRINEVQQAKKKANKDLGEARTICEALQKELDSLHGEKVHLKEILSKKQETLRILRLHCQEKESEAHRKHTMLQECKERISALNLQIEEEKNKQRQLRLAFEEQLEDLMGQHKDLWDFHMPERLAKEICALDSSKEQLLKEEKLVKATLEDVKHQLCSLCGAEGPSTLDEGLFLRSQEAAATVQLFQEEHRKAEELLAAAAQRHQQLQQKCQQQQQKRQRLKEELEKHGMQVPAQAQSTQEEEAGPGDVASPKPLKGERPGAAHQAGPDVLIGQEDTLHPDLSPRGFQEIKELF
notes: SYCE1, human, full length; canonical 351-amino acid isoform; source: E. coli BL21(DE3), purified; co-expressed with SIX6OS1N for the complex
B3: SYCE1POF (human SYCE1 amino acids 1 to 240, truncated product of the POF mutation c.613C>T, p.Gln241*) (domain or fragment, UniProt Q8N0S2 1-240, looked up)
chain: MAGRSLTSKAEPTAGAVDRAEKAGGQDTSSQKIEDLMEMVQKLQKVGSLEPRVEVLINRINEVQQAKKKANKDLGEARTICEALQKELDSLHGEKVHLKEILSKKQETLRILRLHCQEKESEAHRKHTMLQECKERISALNLQIEEEKNKQRQLRLAFEEQLEDLMGQHKDLWDFHMPERLAKEICALDSSKEQLLKEEKLVKATLEDVKHQLCSLCGAEGPSTLDEGLFLRSQEAAATV
notes: SYCE1, human, amino acids 1 to 240, relative to the canonical 351-amino acid isoform; product of the premature stop codon p.Gln241*; The purified material held about equal amounts of the full protein and a degradation product; source: also co-expressed with SIX6OS1N

Tests used:
[1] = biological target: the molecule itself; assay: SEC-MALS; 5 to 20 mg/ml in 20 mM tris (pH 8.0), 150 mM KCl, 2 mM DTT; Superdex 200 Increase 10/300 GL at 0.5 ml/min
[2] = biological target: T1, SIX6OS1N (human SIX6OS1 amino acids 1 …); assay: as above; conditions: both partners purified

Row | Binder | binding result [1] | stoichiometry N [2] | stoichiometry N [1]
1 | B1 | binds | 1 | 
2 | B2 |  | 1 | 
3 | B3 |  | 1 | 2
